Measurements: US20230406948A1 (APEXIGEN, published 2023)

B1: c19-21, chimeric 19-21 (rabbit Fab and human IgG1) (antibody, V domains shown)
VH: QSLEESGGRLVTPGTPLTLTCTVSGFDLSSNAMNWVRQAPGKGLEWIGYITISGSAGYASWAKGRFTISKTSTTVDLKISSPTTEDTATYFCARGYNTMAIWGPGTLVTVSS
VL: AQVLTQTPSPVSAPVGGTVTINCQSSQNVLINNRLAWYQQKPGQPPKLLIYDASKLASGVPSRFKGSGSGTQFTLTISGVQCDDAATYYCQAGYSSGDGNAFGGGTEVVVK
B2: 19-21 rabbit anti-CD40 agonist antibody (antibody, V domains shown)
VH: B1 VH
VL: B1 VL
notes: Whether the rabbit or the chimeric form was used there is not clear
B3: cR-33, chimeric R-33 (rabbit Fab and human IgG1) (antibody, V domains shown)
VH: QSLEESGGDLVKPGASLTLTCTASGFSFSSSYWICWVRQAPGKGLEWIACINTGSSVTTVYARWAKGRFTISKASSTTVTLQMTSLTAADTATYFCARYIIPGYNFNLWGPGTLVTVSS
VL: AYDMTQTPASVEVAVGGTVTINCQASQSISSYLYWYQQKPGQPPKLLIYDASKLASGVPSRFKGSGSGTQFTLTITGVECADAATYYCQQGYSHINVDNIFGGGTEVVVK
B4: CP870893 (antibody, V domains shown)
VH: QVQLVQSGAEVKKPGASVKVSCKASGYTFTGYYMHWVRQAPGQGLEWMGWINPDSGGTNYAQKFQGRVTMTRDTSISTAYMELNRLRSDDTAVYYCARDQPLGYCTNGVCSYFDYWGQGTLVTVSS
VL: DIQMTQSPSSVSASVGDRVTITCRASQGIYSWLAWYQQKPGKAPNLLIYTASTLQSGVPSRFSGSGSGTDFTLTISSLQPEDFATYYCQQANIFPLTFGGGTKVEIK
B5: APX005 S267E mutant (antibody, human IgG1, V domains shown)
VH: QVQLVESGGGVVQPGRSLRLSCAASGFSFSSTYVCWVRQAPGKGLEWIACIYTGDGTNYSASWAKGRFTISKDSSKNTVYLQMNSLRAEDTAVYFCARPDITYGFAINFWGPGTLVTVSS
VL: DIQMTQSPSSLSASVGDRVTIKCQASQSISSRLAWYQQKPGKPPKLLIYRASTLASGVPSRFSGSGSGTDFTLTISSLQPEDVATYYCQCTGYGISWPIGGGTKVEIK
B6: cR-8, chimeric R-8 (rabbit Fab and human IgG1) (antibody, V domains shown)
VH: QSLEESGGDLVKPGASLTLTCTASGFSFSSTYVCWVRQAPGKGLEWIACIYTGDGTNYSASWAKGRFTISKPSSTTVTLQMTSLTPADTATYFCARPDITYGFAINFWGPGTLVTVSS
VL: DIVMTQTPSSASEPVGGTVTIKCQASQSISSRLAWYQQKPGQPPKLLIYRASTLASGVPSRFKGSGSGTEFTLTISDLECADAATYYCQCTGYGISWPIGGGTEVVVK
B7: cR-3, chimeric R-3 (rabbit Fab and human IgG1) (antibody, V domains shown)
VH: QSLEESGGDLVKPGASLTLTCTASGFSFSDSFWIAWVRQAPGKGLEWIGCIHALSSGSTYYANWARGRFTISKTSSTTVTLQMNSLTAADTATYFCARSYAGYADYNVATGLNLWGPGTLVTVSS
VL: DVVMTQTPSSASAAVGGTVTTKCQASQSIGSYLAWYQQKPGQRPKLLIYAASNLASGVPSRFKGSRSGTEYTLTISGVQREDAATYYCLGSFTGSDTTFGGGTELEIL

How the values were obtained:
[1] = biological target: T1, human CD40 on cells (native CD40 on Ramos cells, human B cells, human monocyte-derived dendritic cells); cell … (human, UniProt P25942 21-193); test: cell-based or functional assay
[2] = biological target: T1, human CD40 on cells (native CD40 on …); test: FACS on live Ramos cells, goat anti-human IgG (H+L) PE
Experimental: (§1) In another experiment, the ability of the CD40 antibodies to bind to native CD40 protein was determined by FACS analysis with live Ramos cells. Ramos cells were harvested and blocked with 1.5 ml blocking buffer (0.1% BSA/PBS) for 30 minutes. Antibodies at various concentrations were added to cells and incubated for 1 hour. After washing, 50 ul Goat-anti-human IgG (H+L) PE antibody at 1:1000 dilution in blocking solution was added and incubated for 30 minutes. Cells were then washed with PBS and were re-suspended with […] and analyzed by FACS. The antibodies tested were the 19-21 rabbit anti-CD40 agonist antibody, SGN-40 developed by Seattle Genetics and CP870893 from Pfizer.

[3] = biological target: T1, human CD40 on cells (native CD40 on …); test: cell-based or functional assay; remark: listed apart in the source
CD40-Fc protein = biological target: T2, CD40-Fc protein (Homo sapiens (Human), UniProt P25942 21-193); test: ELISA, plates coated with CD40-Fc protein, OD405nm
T2 construct: not shown: Fc
Text: In order to assess the ability of the APX005 […] mutant to bind to CD40, APX005 S267E heavy chain and light chain plasmids were purified from transformed bacteria and transfected into 293-6E cell. Four days after transfection, antibody-containing culture supernatants were collected and tested for binding to CD40 using ELISA (ELISA plates coated with CD40-Fc protein).

[4] = biological target: T1, human CD40 on cells (native CD40 on …); test: FACS on live Ramos cells, goat anti-human IgG PE
Experimental: as §1

T1 sequence (P25942 21-193): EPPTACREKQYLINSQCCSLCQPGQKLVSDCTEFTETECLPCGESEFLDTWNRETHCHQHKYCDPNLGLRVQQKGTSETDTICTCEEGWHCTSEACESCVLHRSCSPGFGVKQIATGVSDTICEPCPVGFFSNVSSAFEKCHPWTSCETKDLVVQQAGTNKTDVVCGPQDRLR
T2 sequence (P25942 21-193 limits assumed): as the sequence (P25942 21-193) above

Binder	Pro-apoptosis activity (IC50) [1] [µg/mL]	EC50 [2] [µg/mL]	further results
B1	0.02	–	–
B2	–	0.0201	–
B3	0.9	–	–
B4	–	0.171	EC50 (ng/ml), CD40 agonist activity: up-regulation of CD86 on human B cells [3]: 37 ng/mL
B5	–	0.0266	EC50 (CD40-Fc protein): 0.0551 µg/mL; EC50 (ng/ml), CD40 agonist activity: up-regulation of CD86 on human B cells [3]: 4.15 ng/mL; fold higher affinity than CP870893 [4]: 6 fold
B6	0.45	–	–
B7	0.57	–	–
